PMC4558008, “Yeast Mitochondrial Transcription Factor Mtf1 Determines the Precision of Promoter-Directed Initiation of RNA Polymerase Rpo41” (PLoS ONE, 2015)

B1: Rpo41 ΔN393 (N-terminal 393 residues removed, 958 aa) (domain or fragment, yeast, UniProt P13433 394-1351, looked up)
chain: SLPTLEEKKAFESALNIFNQDRQKVLENRATEAARERWKHDFEEAKARGDISIEKNLNVKLWKWYNEMLPLVKEEINHCRSLLSEKLSDKKGLNKVDTNRLGYGPYLTLIDPGKMCVITILELLKLNSTGGVIEGMRTARAVISVGKAIEMEFRSEQVLKSESQAFRDVNKKSPEFKKLVQNAKSVFRSSQIEQSKILWPQSIRARIGSVLISMLIQVAKVSVQGVDPVTKAKVHGEAPAFAHGYQYHNGSKLGVLKIHKTLIRQLNGERLIASVQPQLLPMLVEPKPWVNWRSGGYHYTQSTLLRTKDSPEQVAYLKAASDNGDIDRVYDGLNVLGRTPWTVNRKVFDVVSQVWNKGEGFLDIPGAQDEMVLPPAPPKNSDPSILRAWKLQVKTIANKFSSDRSNRCDTNYKLEIARAFLGEKLYFPHNLDFRGRAYPLSPHFNHLGNDMSRGLLIFWHGKKLGPSGLKWLKIHLSNLFGFDKLPLKDRVAFTESHLQDIKDSAENPLTGDRWWTTADKPWQALATCFELNEVMKMDNPEEFISHQPVHQDGTCNGLQHYAALGGDVEGATQVNLVPSDKPQDVYAHVARLVQKRLEIAAEKGDENAKILKDKITRKVVKQTVMTNVYGVTYVGATFQIAKQLSPIFDDRKESLDFSKYLTKHVFSAIRELFHSAHLIQDWLGESAKRISKSIRLDVDEKSFKNGNKPDFMSSVIWTTPLGLPIVQPYREESKKQVETNLQTVFISDPFAVNPVNARRQKAGLPPNFIHSLDASHMLLSAAECGKQGLDFASVHDSYWTHASDIDTMNVVLREQFIKLHEVDLVLRLKEEFDQRYKNYVKIGKLKRSTDLAQKIIRIRKDLSRKLGRSTTLADEIYFEKKRQELLNSPLIEDRNVGEKMVTTVSLFEDITDLDALELENGGDENSGMSVLLPLRLPEIPPKGDFDVTVLRNSQYFFS
notes: printed length 958 aa (theoretical 111 kDa); source: E. coli Rosetta cells, purified (same method as His-Rpo41: Ni-NTA, Superdex 200 gel filtration)
B2: Yeast mitochondrial transcription factor Mtf1 (His-Mtf1) (natural protein, UniProt P14908 2-341, looked up)
chain: SVPIPGIKDISKLKFFYGFKYLWNPTVYNKIFDKLDLTKTYKHPEELKVLDLYPGVGIQSAIFYNKYCPRQYSLLEKRSSLYKFLNAKFEGSPLQILKRDPYDWSTYSNLIDEERIFVPEVQSSDHINDKFLTVANVTGEGSEGLIMQWLSCIGNKNWLYRFGKVKMLLWMPSTTARKLLARPGMHSRSKCSVVREAFTDTKLIAISDANELKGFDSQCIEEWDPILFSAAEIWPTKGKPIALVEMDPIDFDFDVDNWDYVTRHLMILKRTPLNTVMDSLGHGGQQYFNSRITDKDLLKKCPIDLTNDEFIYLTKLFMEWPFKPDILMDFVDMYQTEHSG
notes: Mtf1, yeast mitochondrial transcription factor (theoretical 40 kDa); the printed PCR primers run from the codon after the start methionine (TCT GTT CCA ATC CCT: S V P I P) to the stop codon; Subcloned into pTrcHisC (Invitrogen) between NheI and HindIII; the vector's leader with the His tag precedes the protein; source: E. coli Rosetta cells, purified
B3: Yeast mitochondrial RNA polymerase Rpo41, wild-type (His-Rpo41) (enzyme)
chain: MLRPAYKSLVKTSLLQRRLISSKGSKLFKPSPDSTSTILISEDPLVTGSSPTSSTTSGIISSNDFPLFNKNRKDAKSSISYQWKNPSELEFDPFNKSHASAVTSMTRTRDVMQLWSLLEACLQSNLMKRAFSILESLYLVPEHKQRFIEDYNMYLNSFSKNDPNFPILKMNEKLTNDLETSFKDVNYNDKTLAIMIHHALNFHSTTSSMLLKPIISAYLKMSVNGIREIFSCLDILTISDLNILMNDLKVITPSQLPNSVRPILESLTLSPTPVNNIENEEGLNKVEAENDSKLHKASNASSDSIKKPSLDPLREVSFHGSTEVLSKDAEKLIAVDTIGMRVIRHTLLGLSLTPEQKEQISKFKFDANDNVLKMKPTKNDDNNNSINFFEIYNSLPTLEEKKAFESALNIFNQDRQKVLENRATEAARERWKHDFEEAKARGDISIEKNLNVKLWKWYNEMLPLVKEEINHCRSLLSEKLSDKKGLNKVDTNRLGYGPYLTLIDPGKMCVITILELLKLNSTGGVIEGMRTARAVISVGKAIEMEFRSEQVLKSESQAFRDVNKKSPEFKKLVQNAKSVFRSSQIEQSKILWPQSIRARIGSVLISMLIQVAKVSVQGVDPVTKAKVHGEAPAFAHGYQYHNGSKLGVLKIHKTLIRQLNGERLIASVQPQLLPMLVEPKPWVNWRSGGYHYTQSTLLRTKDSPEQVAYLKAASDNGDIDRVYDGLNVLGRTPWTVNRKVFDVVSQVWNKGEGFLDIPGAQDEMVLPPAPPKNSDPSILRAWKLQVKTIANKFSSDRSNRCDTNYKLEIARAFLGEKLYFPHNLDFRGRAYPLSPHFNHLGNDMSRGLLIFWHGKKLGPSGLKWLKIHLSNLFGFDKLPLKDRVAFTESHLQDIKDSAENPLTGDRWWTTADKPWQALATCFELNEVMKMDNPEEFISHQPVHQDGTCNGLQHYAALGGDVEGATQVNLVPSDKPQDVYAHVARLVQKRLEIAAEKGDENAKILKDKITRKVVKQTVMTNVYGVTYVGATFQIAKQLSPIFDDRKESLDFSKYLTKHVFSAIRELFHSAHLIQDWLGESAKRISKSIRLDVDEKSFKNGNKPDFMSSVIWTTPLGLPIVQPYREESKKQVETNLQTVFISDPFAVNPVNARRQKAGLPPNFIHSLDASHMLLSAAECGKQGLDFASVHDSYWTHASDIDTMNVVLREQFIKLHEVDLVLRLKEEFDQRYKNYVKIGKLKRSTDLAQKIIRIRKDLSRKLGRSTTLADEIYFEKKRQELLNSPLIEDRNVGEKMVTTVSLFEDITDLDALELENGGDENSGMSVLLPLRLPEIPPKGDFDVTVLRNSQYFFS

What was measured:
[1] = target: B2; assay: cell-based or functional assay
[2] = target: B2; assay: SEC; analytical gel filtration (Superdex), 1 μM Rpo41 (wild-type or ΔN393), 2 μM Mtf1 and 3 μM 20 bp duplex DNA with the 14S rRNA promoter; peak fractions on SDS-PAGE with densitometry; apparent Kd in the presence of DNA; 40 mM Tris-HCl pH 7.9, 150 mM NaCl, 0.1% Tween 20, 15% glycerol, 1 mM EDTA, 1 mM DTT; conditions: both partners purified
[3] = target: B1; assay: SEC; analytical gel filtration (Superdex), 2.8 μM Rpo41 (wild-type or ΔN393) with 5.6 μM Mtf1, no DNA; peak fractions on SDS-PAGE with densitometry; apparent Kd; 40 mM Tris-HCl pH 7.9, 150 mM NaCl, 0.1% Tween 20, 15% glycerol, 1 mM EDTA, 1 mM DTT; conditions: both partners purified
[4] = target: B1; assay: SEC; analytical gel filtration (Superdex), 1 μM Rpo41 (wild-type or ΔN393), 2 μM Mtf1 and 3 μM 20 bp duplex DNA with the 14S rRNA promoter; peak fractions on SDS-PAGE with densitometry; apparent Kd in the presence of DNA; 40 mM Tris-HCl pH 7.9, 150 mM NaCl, 0.1% Tween 20, 15% glycerol, 1 mM EDTA, 1 mM DTT; conditions: both partners purified
[5] = target: B2; assay: SEC; analytical gel filtration (Superdex), 2.8 μM Rpo41 (wild-type or ΔN393) with 5.6 μM Mtf1, no DNA; peak fractions on SDS-PAGE with densitometry; apparent Kd; 40 mM Tris-HCl pH 7.9, 150 mM NaCl, 0.1% Tween 20, 15% glycerol, 1 mM EDTA, 1 mM DTT; conditions: both partners purified
[6] = target: B2; assay: as above; conditions: both partners purified; remark: listed apart in the source
[7] = target: B2; assay: SEC; analytical gel filtration (Superdex), 1 μM Rpo41 (wild-type or ΔN393), 2 μM Mtf1 and 3 μM 20 bp duplex DNA with the 14S rRNA promoter; peak fractions on SDS-PAGE with densitometry; apparent Kd in the presence of DNA; 40 mM Tris-HCl pH 7.9, 150 mM NaCl, 0.1% Tween 20, 15% glycerol, 1 mM EDTA, 1 mM DTT; conditions: both partners purified; remark: listed apart in the source

Binder: B1
- activity of the holoenzyme on the 70 bp linear 14S rRNA promoter template, relative to the wild-type enzyme [1]: 20%
- stoichiometry N [2]: 1

Binder: B2
- Kd [3]: 13000 nM
- Kd [4]: 600 nM

Binder: B3
- stoichiometry N [5]: 1
- Kd [6]: 4000 nM
- Kd [7]: 20 nM
